The target in the test is T1, recombinant soluble form of the extracellular domain of DC-SIGN, Q9NNX6.
T1 chain: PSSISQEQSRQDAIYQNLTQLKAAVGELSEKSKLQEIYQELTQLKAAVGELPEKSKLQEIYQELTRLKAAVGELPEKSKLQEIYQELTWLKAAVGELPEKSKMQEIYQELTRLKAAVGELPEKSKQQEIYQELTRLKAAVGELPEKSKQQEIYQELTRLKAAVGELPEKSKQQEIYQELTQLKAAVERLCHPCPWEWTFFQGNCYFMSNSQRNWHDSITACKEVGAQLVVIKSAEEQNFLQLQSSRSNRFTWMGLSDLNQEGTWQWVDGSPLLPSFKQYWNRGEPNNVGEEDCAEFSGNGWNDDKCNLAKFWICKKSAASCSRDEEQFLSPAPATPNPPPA
Description: native gel or EMSA; denaturing and nondenaturing polyacrylamide gel electrophoresis of the refolded, purified protein (fig. S2, A and B). The conditions noted are these: remark: other sources report otherwise.

B1: recombinant soluble form of the extracellular domain of DC-SIGN, Q9NNX6 64-404 (domain or fragment)
chain: PSSISQEQSRQDAIYQNLTQLKAAVGELSEKSKLQEIYQELTQLKAAVGELPEKSKLQEIYQELTRLKAAVGELPEKSKLQEIYQELTWLKAAVGELPEKSKMQEIYQELTRLKAAVGELPEKSKQQEIYQELTRLKAAVGELPEKSKQQEIYQELTRLKAAVGELPEKSKQQEIYQELTQLKAAVERLCHPCPWEWTFFQGNCYFMSNSQRNWHDSITACKEVGAQLVVIKSAEEQNFLQLQSSRSNRFTWMGLSDLNQEGTWQWVDGSPLLPSFKQYWNRGEPNNVGEEDCAEFSGNGWNDDKCNLAKFWICKKSAASCSRDEEQFLSPAPATPNPPPA
Consider B1, for which the stoichiometry N was 4.

Values taken from paper PMC10198640.
